Measurements from the Human Domainome abundance scans (Beltran et al. 2025).
± gives the uncertainty stated by the source.

B1: COUP transcription factor 1, residues 83 to 159; numbered along this chain, P10589 (parent)
chain: HIECVVCGDKSSGKHYGQFTCEGCKSFFKRSVRRNLTYTCRANRNCPIDQHHRNQCQYCRLKKCLKVGMRREAVQRG

Variants of: B1
Test: abundance fitness (aPCA) (normalised: wild type 0, dead -1); higher = more abundant; growth selection in yeast, the domain comes from the species named
Conditions: Homo sapiens

Row | Variant | abundance fitness
1 | HIECVVCGDKSSGKHYGMFTCEGCKSFFKRSVRRNLTYTCRANRNCPIDQHHRNQCQYCRLKKCLKVGMRREAVQRG [Q18M] | 0.067 ± 0.12
2 | HIECVVCGDKSSGKHYGNFTCEGCKSFFKRSVRRNLTYTCRANRNCPIDQHHRNQCQYCRLKKCLKVGMRREAVQRG [Q18N] | -0.345 ± 0.25
3 | HIECVVCGDKSSGKHYGPFTCEGCKSFFKRSVRRNLTYTCRANRNCPIDQHHRNQCQYCRLKKCLKVGMRREAVQRG [Q18P] | 0.079 ± 0.073
4 | HIECVVCGDKSSGKHYGRFTCEGCKSFFKRSVRRNLTYTCRANRNCPIDQHHRNQCQYCRLKKCLKVGMRREAVQRG [Q18R] | -0.041 ± 0.053
5 | HIECVVCGDKSSGKHYGSFTCEGCKSFFKRSVRRNLTYTCRANRNCPIDQHHRNQCQYCRLKKCLKVGMRREAVQRG [Q18S] | -0.028 ± 0.068
6 | HIECVVCGDKSSGKHYGTFTCEGCKSFFKRSVRRNLTYTCRANRNCPIDQHHRNQCQYCRLKKCLKVGMRREAVQRG [Q18T] | -0.137 ± 0.25
7 | HIECVVCGDKSSGKHYGVFTCEGCKSFFKRSVRRNLTYTCRANRNCPIDQHHRNQCQYCRLKKCLKVGMRREAVQRG [Q18V] | 0.261 ± 0.046
8 | HIECVVCGDKSSGKHYGWFTCEGCKSFFKRSVRRNLTYTCRANRNCPIDQHHRNQCQYCRLKKCLKVGMRREAVQRG [Q18W] | -0.459 ± 0.097
9 | HIECVVCGDKSSGKHYGYFTCEGCKSFFKRSVRRNLTYTCRANRNCPIDQHHRNQCQYCRLKKCLKVGMRREAVQRG [Q18Y] | -0.389 ± 0.26
10 | HIECVVCGDKSSGKHYGQATCEGCKSFFKRSVRRNLTYTCRANRNCPIDQHHRNQCQYCRLKKCLKVGMRREAVQRG [F19A] | -0.101 ± 0.071
11 | HIECVVCGDKSSGKHYGQCTCEGCKSFFKRSVRRNLTYTCRANRNCPIDQHHRNQCQYCRLKKCLKVGMRREAVQRG [F19C] | -0.216 ± 0.12
12 | HIECVVCGDKSSGKHYGQDTCEGCKSFFKRSVRRNLTYTCRANRNCPIDQHHRNQCQYCRLKKCLKVGMRREAVQRG [F19D] | -0.052 ± 0.12
13 | HIECVVCGDKSSGKHYGQETCEGCKSFFKRSVRRNLTYTCRANRNCPIDQHHRNQCQYCRLKKCLKVGMRREAVQRG [F19E] | 0.166 ± 0.069
14 | HIECVVCGDKSSGKHYGQGTCEGCKSFFKRSVRRNLTYTCRANRNCPIDQHHRNQCQYCRLKKCLKVGMRREAVQRG [F19G] | -0.53 ± 0.071
15 | HIECVVCGDKSSGKHYGQHTCEGCKSFFKRSVRRNLTYTCRANRNCPIDQHHRNQCQYCRLKKCLKVGMRREAVQRG [F19H] | -0.037 ± 0.12
16 | HIECVVCGDKSSGKHYGQITCEGCKSFFKRSVRRNLTYTCRANRNCPIDQHHRNQCQYCRLKKCLKVGMRREAVQRG [F19I] | -0.279 ± 0.27
17 | HIECVVCGDKSSGKHYGQLTCEGCKSFFKRSVRRNLTYTCRANRNCPIDQHHRNQCQYCRLKKCLKVGMRREAVQRG [F19L] | -0.129 ± 0.075
18 | HIECVVCGDKSSGKHYGQMTCEGCKSFFKRSVRRNLTYTCRANRNCPIDQHHRNQCQYCRLKKCLKVGMRREAVQRG [F19M] | -0.149 ± 0.1

Row | Variant | abundance fitness
19 | HIECVVCGDKSSGKHYGQQTCEGCKSFFKRSVRRNLTYTCRANRNCPIDQHHRNQCQYCRLKKCLKVGMRREAVQRG [F19Q] | 0.125 ± 0.076
20 | HIECVVCGDKSSGKHYGQRTCEGCKSFFKRSVRRNLTYTCRANRNCPIDQHHRNQCQYCRLKKCLKVGMRREAVQRG [F19R] | -0.098 ± 0.052
21 | HIECVVCGDKSSGKHYGQSTCEGCKSFFKRSVRRNLTYTCRANRNCPIDQHHRNQCQYCRLKKCLKVGMRREAVQRG [F19S] | 0.032 ± 0.065
22 | HIECVVCGDKSSGKHYGQTTCEGCKSFFKRSVRRNLTYTCRANRNCPIDQHHRNQCQYCRLKKCLKVGMRREAVQRG [F19T] | -0.094 ± 0.11
23 | HIECVVCGDKSSGKHYGQVTCEGCKSFFKRSVRRNLTYTCRANRNCPIDQHHRNQCQYCRLKKCLKVGMRREAVQRG [F19V] | -0.269 ± 0.064
24 | HIECVVCGDKSSGKHYGQWTCEGCKSFFKRSVRRNLTYTCRANRNCPIDQHHRNQCQYCRLKKCLKVGMRREAVQRG [F19W] | -0.01 ± 0.06
25 | HIECVVCGDKSSGKHYGQYTCEGCKSFFKRSVRRNLTYTCRANRNCPIDQHHRNQCQYCRLKKCLKVGMRREAVQRG [F19Y] | 0.352 ± 0.15
26 | HIECVVCGDKSSGKHYGQFACEGCKSFFKRSVRRNLTYTCRANRNCPIDQHHRNQCQYCRLKKCLKVGMRREAVQRG [T20A] | -0.051 ± 0.042
27 | HIECVVCGDKSSGKHYGQFCCEGCKSFFKRSVRRNLTYTCRANRNCPIDQHHRNQCQYCRLKKCLKVGMRREAVQRG [T20C] | 0.163 ± 0.064
28 | HIECVVCGDKSSGKHYGQFDCEGCKSFFKRSVRRNLTYTCRANRNCPIDQHHRNQCQYCRLKKCLKVGMRREAVQRG [T20D] | -1.13 ± 0.34
29 | HIECVVCGDKSSGKHYGQFECEGCKSFFKRSVRRNLTYTCRANRNCPIDQHHRNQCQYCRLKKCLKVGMRREAVQRG [T20E] | -0.116 ± 0.051
30 | HIECVVCGDKSSGKHYGQFFCEGCKSFFKRSVRRNLTYTCRANRNCPIDQHHRNQCQYCRLKKCLKVGMRREAVQRG [T20F] | -0.106 ± 0.15
31 | HIECVVCGDKSSGKHYGQFGCEGCKSFFKRSVRRNLTYTCRANRNCPIDQHHRNQCQYCRLKKCLKVGMRREAVQRG [T20G] | -0.242 ± 0.039
32 | HIECVVCGDKSSGKHYGQFHCEGCKSFFKRSVRRNLTYTCRANRNCPIDQHHRNQCQYCRLKKCLKVGMRREAVQRG [T20H] | -0.541 ± 0.16
33 | HIECVVCGDKSSGKHYGQFICEGCKSFFKRSVRRNLTYTCRANRNCPIDQHHRNQCQYCRLKKCLKVGMRREAVQRG [T20I] | 0.232 ± 0.086
34 | HIECVVCGDKSSGKHYGQFKCEGCKSFFKRSVRRNLTYTCRANRNCPIDQHHRNQCQYCRLKKCLKVGMRREAVQRG [T20K] | -0.868 ± 0.19
35 | HIECVVCGDKSSGKHYGQFLCEGCKSFFKRSVRRNLTYTCRANRNCPIDQHHRNQCQYCRLKKCLKVGMRREAVQRG [T20L] | -0.084 ± 0.05
36 | HIECVVCGDKSSGKHYGQFMCEGCKSFFKRSVRRNLTYTCRANRNCPIDQHHRNQCQYCRLKKCLKVGMRREAVQRG [T20M] | -0.079 ± 0.076
